According to paper PMC11750101:

Molecular target: RBD-HR/trimer (SARS-CoV-2) (UniProt P0DTC2)
Test: SEC

RBD-HR/trimer (from UniProt P0DTC2) showed a stoichiometry N of 3.
